The values below come from IntAct's records for PubMed 22916205.

Sequences and labels used below:
B1: "Na(+)/H(+) exchange regulatory cofactor-like protein nrfl-1" (Caenorhabditis elegans), G5EDM4-1 (parent)
chain: MVHIPSDVTPPRLCVVEKLNGENEYGYNLHAEKGRGQFVGTVDPDSPAERGGLITGDRIFAVNGHSIIGENHKKVVERIKANPNRCEMLVISEEGAKWYNENNVQITLDLPNIERVSPMSKETPVFVPPPPPPTDAMPYLPRLAELNKGTPDQEFGFNLHAERGRGHFIGTVDAGGIGEKAGLEAGQRIVGVNGQLIYPTTGHKEVVALIKKDTMKTTLLVASEDVDKYHKDHNIAYSWDNVERVDTRPVINVETHHHHEEVSVPKSNGYDVPPLNPHSIQVNEEREISKMTTTTRTETITNSNSAYQYKESSTAYDAYATPPVDSNDLMDEVFGRVNLPGVTMSSHTEVLPPTDDISSVSSLSSHRESAVDVPVSHQYVPSYATESHQKHEQHSQTHHHHHQHQQPSPLSNGSSHGYAASSTSGYDDDDIYHLSAREARERLRMKNRKHHLHEMSLNEKYQLVSNM
partner: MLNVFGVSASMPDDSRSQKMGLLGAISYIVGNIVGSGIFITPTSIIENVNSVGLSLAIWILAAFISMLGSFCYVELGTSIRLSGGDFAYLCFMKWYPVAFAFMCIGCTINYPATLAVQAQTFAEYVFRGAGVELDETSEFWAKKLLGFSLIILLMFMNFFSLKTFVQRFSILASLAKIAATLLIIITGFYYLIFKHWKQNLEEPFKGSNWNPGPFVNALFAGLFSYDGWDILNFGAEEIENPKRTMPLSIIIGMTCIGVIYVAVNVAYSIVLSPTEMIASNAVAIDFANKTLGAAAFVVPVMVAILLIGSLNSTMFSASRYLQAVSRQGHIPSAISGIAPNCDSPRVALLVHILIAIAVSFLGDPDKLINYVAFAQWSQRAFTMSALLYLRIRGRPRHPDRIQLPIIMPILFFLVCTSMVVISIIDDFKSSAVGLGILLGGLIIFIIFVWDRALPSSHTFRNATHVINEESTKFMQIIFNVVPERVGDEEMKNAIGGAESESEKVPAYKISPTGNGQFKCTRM

The variants in this test derive from B1. Conditions: with aat6_caeel aat-6, Q22397.
MVHIPSDVTPPRLCVVEKLNGENEYAANLHAEKGRGQFVGTVDPDSPAERGGLITGDRIFAVNGHSIIGENHKKVVERIKANPNRCEMLVISEEGAKWYNENNVQITLDLPNIERVSPMSKETPVFVPPPPPPTDAMPYLPRLAELNKGTPDQEFGFNLHAERGRGHFIGTVDAGGIGEKAGLEAGQRIVGVNGQLIYPTTGHKEVVALIKKDTMKTTLLVASEDVDKYHKDHNIAYSWDNVERVDTRPVINVETHHHHEEVSVPKSNGYDVPPLNPHSIQVNEEREISKMTTTTRTETITNSNSAYQYKESSTAYDAYATPPVDSNDLMDEVFGRVNLPGVTMSSHTEVLPPTDDISSVSSLSSHRESAVDVPVSHQYVPSYATESHQKHEQHSQTHHHHHQHQQPSPLSNGSSHGYAASSTSGYDDDDIYHLSAREARERLRMKNRKHHLHEMSLNEKYQLVSNM [G26A;Y27A]: the “effect of a mutation on the interaction” value is “with no effect”.

For MVHIPSDVTPPRLCVVEKLNGENEYAANLHAEKGRGQFVGTVDPDSPAERGGLITGDRIFAVNGHSIIGENHKKVVERIKANPNRCEMLVISEEGAKWYNENNVQITLDLPNIERVSPMSKETPVFVPPPPPPTDAMPYLPRLAELNKGTPDQAAGFNLHAERGRGHFIGTVDAGGIGEKAGLEAGQRIVGVNGQLIYPTTGHKEVVALIKKDTMKTTLLVASEDVDKYHKDHNIAYSWDNVERVDTRPVINVETHHHHEEVSVPKSNGYDVPPLNPHSIQVNEEREISKMTTTTRTETITNSNSAYQYKESSTAYDAYATPPVDSNDLMDEVFGRVNLPGVTMSSHTEVLPPTDDISSVSSLSSHRESAVDVPVSHQYVPSYATESHQKHEQHSQTHHHHHQHQQPSPLSNGSSHGYAASSTSGYDDDDIYHLSAREARERLRMKNRKHHLHEMSLNEKYQLVSNM [G26A;Y27A;E154A;F155A], the “effect of a mutation on the interaction” value is “disrupting interaction strength”.

For MVHIPSDVTPPRLCVVEKLNGENEYGYNLHAEKGRGQFVGTVDPDSPAERGGLITGDRIFAVNGHSIIGENHKKVVERIKANPNRCEMLVISEEGAKWYNENNVQITLDLPNIERVSPMSKETPVFVPPPPPPTDAMPYLPRLAELNKGTPDQAAGFNLHAERGRGHFIGTVDAGGIGEKAGLEAGQRIVGVNGQLIYPTTGHKEVVALIKKDTMKTTLLVASEDVDKYHKDHNIAYSWDNVERVDTRPVINVETHHHHEEVSVPKSNGYDVPPLNPHSIQVNEEREISKMTTTTRTETITNSNSAYQYKESSTAYDAYATPPVDSNDLMDEVFGRVNLPGVTMSSHTEVLPPTDDISSVSSLSSHRESAVDVPVSHQYVPSYATESHQKHEQHSQTHHHHHQHQQPSPLSNGSSHGYAASSTSGYDDDDIYHLSAREARERLRMKNRKHHLHEMSLNEKYQLVSNM [E154A;F155A], the “effect of a mutation on the interaction” value is given as “decreasing interaction strength”.
